From patent US20260049105A1, “SELECTIVE MC4R LIGAND FOR TREATING OBESITY AND COGNITIVE LOSS” (ARIZONA BOARD OF REGENTS ON BEHALF OF THE UNIVERSITY OF …, priority 2022, published 2026) come the findings set out here.

The assay addresses human melanocortin 4 receptor (human), P32245. Briefly: competition with 125I-NDP-α-MSH on whole HEK293 cells expressing hMC4R. As to conditions: remark: other sources report otherwise.

human melanocortin 4 receptor (human), P32245, sequence (P32245 whole entry): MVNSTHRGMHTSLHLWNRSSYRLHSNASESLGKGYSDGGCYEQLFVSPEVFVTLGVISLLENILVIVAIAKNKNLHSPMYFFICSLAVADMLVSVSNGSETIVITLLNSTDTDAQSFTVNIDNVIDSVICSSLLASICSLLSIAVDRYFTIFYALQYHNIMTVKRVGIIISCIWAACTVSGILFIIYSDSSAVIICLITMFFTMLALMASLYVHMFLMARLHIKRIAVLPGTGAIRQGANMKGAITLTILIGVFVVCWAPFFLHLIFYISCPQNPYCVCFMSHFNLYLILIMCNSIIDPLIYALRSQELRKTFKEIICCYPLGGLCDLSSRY

B1: Ac-Arg-cyclo[Asp-Pip-D-Phe(4-F)-βArg-Trp-Lys]-NH2 (peptide)
peptide: RDXFRWK
modifications: not fully specified; here or on the partner: N-terminal acetyl (Ac); C-terminal amide (NH2); cyclized through the side chains of Asp2 and Lys7; Pip at 3; D-Phe(4-F) at 4; βArg at 5
For B1, the BE% (percent [125I]NDP-α-MSH displacement at 10 µM) is 23%.
